Data published in article PMC5618543, “Differences in Sulfotyrosine Binding amongst CXCR1 and CXCR2 Chemokine Ligands” (International Journal of Molecular Sciences, 2017).

Experiments:
[1] = biological target: T1, CXCL8 (Homo sapiens, UniProt P10145); assay: 1H-15N HSQC NMR titration ([…] sY, […]N-CXCL8); format: binding
T1 sequence (P10145 23-99): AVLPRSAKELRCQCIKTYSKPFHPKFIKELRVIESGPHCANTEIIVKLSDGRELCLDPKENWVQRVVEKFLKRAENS

[2] = biological target: CXCR1 (Homo sapiens) (UniProt P25024); conditions: cited from earlier work
[3] = biological target: CXCR2 (Homo sapiens) (UniProt P25025); conditions: cited from earlier work
Sequence of CXCR2 (Homo sapiens) (P25025 whole entry): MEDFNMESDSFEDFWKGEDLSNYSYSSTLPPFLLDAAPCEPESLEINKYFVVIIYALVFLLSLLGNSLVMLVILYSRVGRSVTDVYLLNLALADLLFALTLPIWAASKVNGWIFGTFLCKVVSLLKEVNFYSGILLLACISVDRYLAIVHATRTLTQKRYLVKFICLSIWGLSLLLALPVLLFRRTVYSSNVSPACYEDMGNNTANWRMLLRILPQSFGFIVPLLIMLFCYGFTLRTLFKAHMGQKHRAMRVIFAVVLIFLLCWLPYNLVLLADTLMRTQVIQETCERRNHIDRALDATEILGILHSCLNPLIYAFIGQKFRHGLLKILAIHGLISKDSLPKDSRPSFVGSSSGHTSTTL

Sequence of CXCR1 (Homo sapiens) (P25024 whole entry): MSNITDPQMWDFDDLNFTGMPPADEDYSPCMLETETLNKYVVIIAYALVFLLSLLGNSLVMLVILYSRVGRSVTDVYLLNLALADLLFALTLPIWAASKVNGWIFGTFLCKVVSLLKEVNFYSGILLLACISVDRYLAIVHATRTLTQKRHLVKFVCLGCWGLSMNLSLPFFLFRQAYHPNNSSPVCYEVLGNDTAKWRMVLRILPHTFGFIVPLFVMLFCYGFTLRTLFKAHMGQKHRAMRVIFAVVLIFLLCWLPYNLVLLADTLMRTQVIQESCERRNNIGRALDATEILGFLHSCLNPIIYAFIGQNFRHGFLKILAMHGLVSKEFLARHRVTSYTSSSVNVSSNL

Molecule | Kd [1] [µM] | Kd [2] [µM] | Kd [3] [µM]
N[C@@H](Cc1ccc(OS(=O)(=O)O)cc1)C(=O)O [sY, sulfotyrosine] | 35200 ± 1950 | – | –
CXCL5 (from UniProt P42830) | – | 0.04 | 0.011
